Like-named read-outs stand apart in the source and are kept apart here.
B1: mAb 25J3 (antibody, V domains shown)
VH: QVQLQESGPGLVRPSETLSLTCNVSGDSINDYYWSWIRQPPGKGLEWIGYIYYSGSTNYNPSLNSRVTISVEMSKNQFSLILNSVTAADTAVYYCARVDYDSGGSFDPWGQGTLVTVS
VL: QSVLTQPPSVSGAPGQRVTISCTGSSSNIGAGYDVHWYQQLPGTAPKLLIYGNSNRPSGVPDRFSGSKSGTSASLAITGLQAEDEADFYCQSYDSRLSGYVFGTGTKVTVLG
B2: mAb 8F8 (antibody, V domains shown)
VH: EVQLLESGGGVVQPGRSLRLSCAASGFMFSSYVMHWVRQPPGKGLEWVAVIWYDGSKTYFADSMRGRLTVSRDNSKNALYLQMNRLRAEDTAVYYCARQQDSGYSGPEVSYYSHYGMDVWGQGTTVIVS
VL: QSVLTQSPSASGTPGRAITISCSGSSSNIGSNPVNWYQQLPGAAPKLLIYADEHRPSGVPDRFSGPKSGTSASLAISGLQSEDEADYYCAAWDDSLSGPAVVFGGGTKLTVLG
B3: mAb 7A13 (antibody, V domains shown)
VH: QVQLQESAPGLVKPSGTLSLTCAVSGASLSSSDWWTWVRQPPGKGLEWIGEIHHGGSTNSNPSLQSRVTISIDKSKKQFSLKLTSVTVADTAVYYCARAPGADAGPYSENIHHWGQGTLVTVS
VL: QLVLTQSPSASASLGASVKLTCTLSSRHSDYAIGWHQQQPGKGPRYLMKLNPDGSHTKGDGIPDRFSGSSSGAERYLTISNLLSEDEADYYCQTWGTGIQVFGGGTRLTVIS
B4: mAb 2G1 (antibody, V domains shown)
VH: EVQLVESGAEVKKPGSSVKVSCKASGGTFITHVFTWVRQAPGQGLEWVGGFIAIFGTSNYAQKFQGRVTITADESTSTAYMELTSLTSEDTAVYYCARGISGSYGWFDPWGQGTLVTVS
VL: DIQLTQSPSSLSASVGDRVTITCQASQDIRKYLNWYQQKPGKAPNLLIYDASNVKTGVPSRFRGSGSGTDFTFTISSLQPEDIATYYCQQYDNLPITFGQGTRLEIKR
B5: mAb 18G6 (antibody, V domains shown)
VH: QVQLKESGPGLVKPSETLSLTCTVSGGSISSSNYNWGWIRQPPGKGLEWIGSVYYSGSTYFNPSLKSRVTISVDTSKNQFSLKLTSVTAADTAVYYCARLIAFYYDTNGYTWGQGTLVTVS
VL: NSIMTQSPFTLSASVGDKVTITCRASQSISPWLAWYQQKPGKAPKLLIYKASSLETGVPSRFSGSESGTEFTLTISGLQPDDFATYYCQQYSSFARTFGQGTKVEIKR
B6: mAb 4A10 (antibody, V domains shown)
VH: EVQLVESGGGLVQPGGSLRLSCAASGFSFSSYWMTWVRQAPGKGLEWVANIKQYGSEKYYVDSVKGRFTISRDNAKNSLYLQMNSLRDDDTAVYYCARMGSYLDTYYYHYGMDVWGQGTTVTVS
VL: QSVLTQPPSLSGAPGQRVTISCTGSSSNIGADYDVYWYQHLPGTAPKLLMYGDGYRPSGVPDRFSGSKSGTSASLAITGLQAEDEADYYCQSYDSSLSRRVVFGGGTKLTVLG
B7: mAb 2O10 (antibody, V domains shown)
VH: EVQLVESGGGLVQPGGSLRLSCAASGFTFNSYWMTWVRQAPGKGLEWVANINQDGSEKFFVDSVKGRFTISRDNAKTSLYLQMNSLRVEDTAVYYCAREGAPYDTYYYYYAMDVWGQGTTVTVS
VL: QSVLTQPPSVSGAPGQRVTISCTGTSSNIGAGYGVHWYQQLPGAAPKLLVYGNSNRPSGVPDRFSGSKSGTSASLAITGLQAEDEADYYCQSYDISLSGSNVFGTGTKVTVLG
B8: mAb 11J19 (antibody, V domains shown)
VH: EVQLQESGPGLVKPSETLSLSCTVSGGSITRSSYYWGWIRQPPGKGLEWIGNIYYSGTTYYNPSLKSRVTISVDTSKNQFSLKLSSVTAADTAVYYCARLYGSGLDYWGQGTLVTVS
VL: DIQLTQSPSFLSASVGDRVTITCRASQGSSRYVAWYQQKPGKAPKLLILAASTLHTGVPSRFSGSGSGTEFTLTISSLQPEDFATYSCQQLNGFLLTFGGGTKVEIKR
B9: 5J8 Fab (Fab, V domains shown)
VH: EVQLVESGPGLVKPSDILSLTCAVSGYSISSNYYWGWIRQPPGKGLEWIGSIYHSGSTYYKPSLESRLGISVDTSKNQFSLKLSFVSAADTAVYYCARHVRSGYPDTAYYFDKWGQGTLVTVS
VL: SYVLTQPPSVSVAPGETARISCGGNNIGTKVLHWYQQTPGQAPVLVVYDDSDRPSGIPERFSGSNSGNTATLTISRVEVGDEADYYCQVWDISTDQAVFGGGTKLTVLG
B10: mAb 2K11 (antibody, V domains shown)
VH: EVQLVESGGGLVQPGGSLRLSCVASTFSLINYWMTWVRQAPGKGLEWVANIKQDGFEKYYVDSVKGRFTISRDNAKNSLYLQMNSLRVEDTAVYYCARQGSYADTYFYHYGMDVWGQGTTVTVS
VL: QSALTQPPSVSGAPGQRVTISCTGSSSNIGAGYDAYWYQQLPGTAPKLLIYGNSNRLSGVPDRFSASKSGTSASLAITGLQAEDEADYYCQSYDSSLSIFGGGTKLTVLR

Experiments:
[1] = target: T1, recombinant soluble trimeric 1918 H1 HA (A/South Carolina/1/1918, wild type) (Influenza A virus A/South …, UniProt Q9WFX3 18-529); assay: ELISA, supernate
[2] = target: T2, recombinant soluble 1968 H3 HA (A/Aichi/2/1968) (Influenza A virus A/Aichi/2/1968 (H3N2), UniProt P03437 17-530); assay: ELISA, supernate
[3] = target: HA of A/Japan/305/1957 (H2N2) virus (Influenza A virus (H2N2), UniProt P03451 16-562); assay: cell-based or functional assay
[4] = target: HA of A/Rockville Illinois/5/1957 (H2N2) virus (Influenza A virus (H2N2)); assay: cell-based or functional assay
[5] = target: HA of A/Vietnam/1203/2004 (H5N1) virus (Influenza A virus (H5N1)); assay: cell-based or functional assay
[6] = target: HA of A/Albany/6/1958 (H2N2) virus (Influenza A virus (H2N2)); assay: cell-based or functional assay
[7] = target: HA of A/Ann Arbor/7/1967 (H2N2) virus (Influenza A virus (H2N2)); assay: cell-based or functional assay
[8] = target: T3, HA of A/California/04/2009 (H1N1) virus (Influenza A virus (H1N1)); assay: cell-based or functional assay
[9] = target: HA of A/Hong Kong/1/1968 (H3N2) virus (Influenza A virus (H3N2), UniProt Q91MA7 17-566); assay: cell-based or functional assay
[10] = target: HA of A/swine/Missouri/2124514/2006 (H2N3) virus (Influenza A virus (H2N3)); assay: cell-based or functional assay
[11] = target: HA of A/Ann Arbor/23/1957 (H2N2) virus (Influenza A virus (H2N2)); assay: cell-based or functional assay
[12] = target: HA of A/Netherlands/65/1963 (H2N2) virus (Influenza A virus (H2N2)); assay: cell-based or functional assay
[13] = target: HA of A/Alabama/1/1981 (H3N2) virus (Influenza A virus (H3N2)); assay: cell-based or functional assay
[14] = target: T1, recombinant soluble trimeric 1918 H1 HA …; assay: ELISA, supernate; remark: listed apart in the source
[15] = target: T2, recombinant soluble 1968 H3 HA …; assay: ELISA, supernate; remark: listed apart in the source
[16] = target: HA of A/South Carolina/1/1918 (H1N1), wild type, on VLP (Influenza A virus A/South …, UniProt Q9WFX3 18-566); assay: cell-based or functional assay
[17] = target: HA of A/New Caledonia/20/1999 (H1N1) virus (Influenza A virus (H1N1)); assay: cell-based or functional assay
[18] = target: HA of A/L3/1947 (H1N1) virus (Influenza A virus (H1N1)); assay: cell-based or functional assay
[19] = target: HA of A/Weiss/1943 (H1N1) virus (Influenza A virus (H1N1)); assay: cell-based or functional assay
[20] = target: HA of A/swine/Iowa/15/1930 (H1N1) virus (Influenza A virus (H1N1)); assay: cell-based or functional assay
[21] = target: HA of A/Brisbane/59/2007 (H1N1) virus (Influenza A virus (H1N1)); assay: cell-based or functional assay
[22] = target: T3, HA of A/California/04/2009 (H1N1) virus; assay: cell-based or functional assay; remark: listed apart in the source
[23] = target: HA of A/New Jersey/11/1976 (H1N1) virus (Influenza A virus (H1N1)); assay: cell-based or functional assay
[24] = target: HA of A/USSR/92/1977 (H1N1) virus (Influenza A virus (H1N1)); assay: cell-based or functional assay
[25] = target: T2, recombinant soluble 1968 H3 HA …; assay: ELISA, unconcentrated supernate
[26] = target: T1, recombinant soluble trimeric 1918 H1 HA …; assay: biolayer interferometry (Octet Red), His-tagged HA on anti-Penta-HIS tips

Binder | OD [1] [OD] | OD [2] [OD] | HAI activity [5] [µg/mL] | HAI activity [8] [µg/mL] | HAI activity [9] [µg/mL] | HAI activity [13] [µg/mL] | OD [14] [OD] | OD [15] [OD] | HAI activity [16] [µg/mL] | HAI activity [17] [µg/mL] | HAI activity [18] [µg/mL] | HAI activity [19] [µg/mL] | HAI activity [20] [µg/mL] | HAI activity [21] [µg/mL] | HAI activity [22] [µg/mL] | HAI activity [23] [µg/mL] | HAI activity [24] [µg/mL] | binding result [25] | further results
B1 | 0.07 | 0.623 |  |  |  |  |  |  |  |  |  |  |  |  |  |  |  |  | 
B2 | 0.07 | 0.079 | > 20 | > 20 | > 20 |  |  |  |  |  |  |  |  |  |  |  |  |  | HAI activity [3]: 0.4 µg/mL; HAI activity [4]: 0.4 µg/mL; HAI activity [6]: 0.32 µg/mL; HAI activity [7]: > 20 µg/mL; HAI activity [10]: 0.63 µg/mL; HAI activity [11]: 0.1 µg/mL; HAI activity [12]: 0.1 µg/mL
B3 | 0.076 | 0.265 | > 20 | > 20 | 0.7 | > 20 |  |  |  |  |  |  |  |  |  |  |  |  | 
B4 |  |  | > 50 | > 50 | 5 | > 50 |  |  |  |  |  |  |  |  |  |  |  |  | HAI activity [3]: 0.7 µg/mL; HAI activity [4]: 0.2 µg/mL; HAI activity [6]: 0.32 µg/mL; HAI activity [7]: > 20 µg/mL; HAI activity [10]: 0.63 µg/mL; HAI activity [11]: 0.025 µg/mL; HAI activity [12]: 0.05 µg/mL
B5 | 0.075 | 0.073 |  |  |  |  |  |  |  |  |  |  |  |  |  |  |  |  | 
B6 |  |  |  |  |  |  | 0.725 | 0.072 | 0.08 | > 20 | > 20 | > 20 | 0.63 | > 20 | 0.16 | 2.5 | 0.32 | no binding | 
B7 |  |  |  |  |  |  | 0.308 | 0.077 | 0.04 | > 20 | > 20 | > 20 | 0.08 | > 20 | 0.32 | 2.5 | 2.5 | no binding | 
B8 | 0.079 | 0.895 | > 20 | > 20 | 2.5 | > 20 |  |  |  |  |  |  |  |  |  |  |  |  | 
B9 |  |  |  |  |  |  |  |  |  |  |  |  |  |  |  |  |  |  | Kd [26]: 190 nM; koff [26]: 0.036 s⁻¹; kon [26]: 200000 M⁻¹ s⁻¹
B10 |  |  |  |  |  |  | 0.311 | 0.08 | 0.16 | > 20 | > 20 | > 20 | 0.16 | > 20 | 0.63 | 1.3 | 0.32 | no binding | 

— US20130289246A1 (VANDERBILT UNIVERSITY, published 2013)
